Assay results taken from US20090060916A1 (published 2009).
Where a chain is given by its changes, count along the chain named. Values joined by “and” are separate entries in the source; they are usually repeats but may differ in a detail not shown here. Identical values can stand only once. Like-named read-outs stand apart in the source and are kept apart here.

Legend:
[1] = target: T1, human IL-13 (human, UniProt P35225 35-146, biotinylated on the Biacore chip); test: cell-based or functional assay
[2] = target: T1, human IL-13; test: IL-13 BIAcore binding assay
[3] = target: T1, human IL-13; test: DOM10 RBA (IL-13 sandwich ELISA per paragraph 473)
Method: (§1) A MAXISORP™ plate (high protein binding ELISA plate, Nunc, Denmark) was coated overnight with 2.5 μg/ml coating antibody (Module Set, Bender MedSystems, Vienna, Austria), then washed once with 0.05% (v/v) Tween 20 in PBS before blocking with 0.5% (w/v) BSA 0.05% (v/v) Tween 20 in PBS. […] The plate was then incubated with TMB substrate (KPL, Gaithersburg, USA), and the reaction was stopped by the addition of HCl and the absorbance read at 450 nm.
These in-line fusions were constructed and expressed as described above. […] After this incubation, the level of cell proliferation was determined.

[4] = target: T1, human IL-13; test: IL-13 sandwich ELISA, competition with coating antibody
Method: as §1

[5] = target: T1, human IL-13; test: cell-based or functional assay; remark: listed apart in the source
[6] = target: T2, cynomolgous IL-13 (cynomolgous, UniProt Q0PW92 19-132, The Biacore assay used biotinylated cIL-13 according to our card. The biotin cannot be carried in the letters.); test: cell-based or functional assay
[7] = target: T1, human IL-13; test: Biacore SPR, biotinylated human IL-13 on SA chip
Method: (§2) 50 to 100 ul of the diluted supernatant was injected (kininject) at 50 ul/min flow rate, followed by a 5 minute dissociation phase. Association and dissociation off-rates and constants were calculated using BIAevaluation software v4.1 (Biacore).

[8] = target: T2, cynomolgous IL-13; test: Biacore SPR, biotinylated cynomolgous IL-13 on SA chip
Method: as §2

[9] = target: T1, human IL-13; test: cell-based or functional assay; remark: listed apart in the source
[10] = target: T1, human IL-13; test: IL-13 BIAcore binding assay; remark: listed apart in the source
[11] = target: T3, human IL-4 (human, UniProt P05112 25-153, biotinylated in the receptor binding assay and on the Biacore chip); test: cell-based or functional assay
T3 sequence (looked up): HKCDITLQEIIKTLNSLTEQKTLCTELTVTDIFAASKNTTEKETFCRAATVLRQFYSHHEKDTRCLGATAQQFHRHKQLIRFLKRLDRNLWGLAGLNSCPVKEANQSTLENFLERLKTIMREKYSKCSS

[12] = target: T3, human IL-4; test: cell-based or functional assay; remark: listed apart in the source
[13] = target: T3, human IL-4; test: IL-4 RBA: ELISA, IL-4R/Fc coated, biotinylated IL-4
Description: (§3) The wells were washed three times with 0.1% (v/v) Tween 20 in PBS, followed by three washes with PBS, before blocking with 2% (w/v) BSA in PBS. […] The reaction was stopped by the addition of HCl and the absorbance read at 450 nm.

[14] = target: T3, human IL-4; test: as above; remark: listed apart in the source
Description: as §3

[15] = target: T1, human IL-13; test: cell-based or functional assay; remark: listed apart in the source
[16] = target: variant IL-13 (R130Q) (human), P35225; test: cell-based or functional assay
[17] = target: T1, human IL-13; test: IL-13 receptor alpha2 RBA, competition
Method: (§4) The plate was incubated for seven hours before being read in the 8200 cellular detection system (Applied Biosystems).

[18] = target: T1, human IL-13; test: IL-13 receptor alpha2 RBA, competition; remark: listed apart in the source
Method: as §4

[19] = target: T1, human IL-13; test: Biacore SPR, IL-13 surface
[20] = target: T3, human IL-4; test: Biacore SPR, biotinylated IL-4 on SA chip, co-inject
Method: Analytes were passed over the antigen-coated flow-cell, with in-line referencing against a blank flow-cell, at a flow rate of 30 μl/min in HBS-EP running buffer (Biacore). The first dAb was injected, followed immediately by injection of the second dAb using the Biacore's co-inject function.

[21] = target: T4, rhesus IL-4 (rhesus, UniProt P51492 25-153); test: inferred from TF-1 proliferation with rhesus IL-4
T4 sequence (looked up): T3 sequence (looked up) with K2N, D4H, T6A, Q8R, K12E, E26K, V29I, F33L, N111D
Method: (§5) The mixture was incubated for 72 hours at 37° C. 5% CO₂. […] 96® reagent (colorometric reagent for determining viability, Promega, Madison, USA) was then added and the number of cells per well was quantified by measuring the absorbance at 490 nm.
(§6) A dose-response of the dAb will determine the ND50 in this set up.

[22] = target: T5, cynomolgous IL-4 (cynomolgous, UniProt P79339 25-153); test: inferred from TF-1 proliferation with cynomolgous IL-4
T5 construct: also called Cyno IL-4
T5 sequence: T3 sequence (looked up) with E26K, V29I, F33L
Method: as §5, §6

[23] = target: T3, human IL-4; test: screening of the affinity maturation output; IL-4 RBA and cell assay
[24] = target: T1, human IL-13; test: IL-13 RBA
[25] = target: T1, human IL-13; test: cell-based or functional assay; remark: listed apart in the source

T1 sequence (P35225 35-146 limits assumed): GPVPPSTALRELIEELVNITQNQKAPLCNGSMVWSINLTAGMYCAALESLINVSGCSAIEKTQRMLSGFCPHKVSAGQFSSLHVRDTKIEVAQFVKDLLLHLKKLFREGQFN
T2 sequence (Q0PW92 entry or part of it limits assumed, form in doubt): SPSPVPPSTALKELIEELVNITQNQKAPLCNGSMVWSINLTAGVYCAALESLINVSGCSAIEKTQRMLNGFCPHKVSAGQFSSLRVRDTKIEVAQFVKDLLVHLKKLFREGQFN
variant IL-13 (R130Q) (human), P35225, sequence (P35225 35-146, stated change not applied): as the sequence (P35225 35-146 limits assumed) above

B1: DOM10-275-1 (other)
VH: EVQLLESGGGLVQPGGSLRLSCAASGFTFDREEMDWVRQAPGKGLEWVSTISPSGRKTYYADSVKGRFTISRDNSKNTLYLQMNSLRAEDTAVYYCAKAYTGFDYWGQGTLVTVSS
notes: VH dAb
IC50, IL-13 cell binding assay (so in the source) [1]: 37 nM | Kd [2]: 25 nM and 28 nM and 27 nM | IC50 [3]: 31.3 nM | IC50 [4]: 38 nM

B2: DOM10-275-78 (other)
VH: B1 VH with A23V, R31V, E32A, G55R, K57G, F103R, D104S, Y105L, Q108P
notes: VH dAb
EC50, HEK293 STAT6 SEAP reporter assay, hIL-13 [5]: 2.5 nM | EC50, HEK293 STAT6 SEAP reporter assay, cIL-13 [6]: 1.4 nM | Kd [7]: 0.072 to 0.1 nM | Kd [8]: 0.32 to 0.75 nM

B3: DOM10-276-15 (other)
VH: B1 VH with D30R, R31D, E32Y, T50S, S54N, R56S, K57E, Y59N, G102S
notes: VH dAb
IC50, IL-13 cell binding assay (so in the source) [9]: 90 nM | Kd [10]: 1.5 nM | IC50 [4]: 100 nM

B4: DOM9-44-502 (other)
VL: DIQMTQSPSSLSASVGDRVTITCRASQNINFWLRWYQQKPGKAPTLLIYDASRSQSGVPSRFSGSGSGTDFTLTISSLQPEDFATYYCQQDLMPPYTFGQGTKVEIKR
notes: Vk dAb
average inhibition of HDM induced PBMC proliferation, 100 nM dAb, responding donors [11]: 38% | ND50, IL-4 induced TF-1 cell proliferation [12]: 4.5 nM | IC50 [13]: 4 nM | IC50 [14]: 5.5 nM and 8.6 nM and 4.1 nM and 3.6 nM

B5: DOM10-53-316 (other)
VH: GVQLLESGGGLVQPGGSLRLSCAASGFIFAWYDMGWARQAPGKGLEWVSSIDWHGEVTYYADSVKGRFTISRDNSKNTLYLQMNSLRAEDTAVYYCATAEDEPGYDYWGQGTLVTVSS
notes: VH dAb
IC50, TF-1 proliferation with human IL-13 [15]: 0.39 nM | IC50, TF-1 proliferation with variant IL-13 (R130Q) [16]: 0.52 nM | IC50 [17]: 2 nM | IC50 [18]: 1.2 nM

B6: DOM10-53-386 (other)
VH: B5 VH with A37V, E56K, V57I
notes: VH dAb
binding result [19]: binds

B7: DOM10-53-474 (other)
VH: B5 VH with I28T, A37V
notes: VH dAb
EC50, HEK293 STAT6 SEAP reporter assay, hIL-13 [5]: 0.63 nM | EC50, HEK293 STAT6 SEAP reporter assay, cIL-13 [6]: 11.1 nM | Kd [7]: 0.028 nM | EC50 [4]: 0.023 nM | Kd [8]: 2 nM

B8: DOM9-155-1 (other)
VL: DIQMTQSPSSLSASVGDRVTITCRASLDIGDWLHWYQQKPGKAPKLLIGWGSGLQSGVPSRFSGSGSGTDFTLTISSLQPEDFATYYCLQEGWGPPTFGQGTKVEIKR
notes: Vk dAb
binding result [20]: binds

B9: DOM9-155-25 (other)
VL: B8 VL with L27R, D28P, G30S, G49A, G51A, G53T, Q55D
notes: Vk dAb
binding result [21]: binds | binding result [22]: binds | IC50 [14]: 0.73 nM and 1 nM

B10: DOM9-155-77 (other)
VL: B8 VL with L27R, D28H, G30S, G49P, G51A, Q55W
notes: Vk dAb
binding result [21]: binds | binding result [23]: binds

B11: DOM10-176-535 (other)
VL: DIQMTQSPSSLSASVGDRVTITCRASQWIGPYLNWYQQKPGKAPKPLIYMGYWAPSGVPSRFSGSGSGTDFTLTISSLQPEDFATYYCQQDLYPPFTFGQGTKVEIKR
notes: Vk dAb
IC50 [24]: ~0.5 nM | ND50, IL-13 induced TF-1 cell proliferation [25]: 0.77 nM | IC50, TF-1 proliferation with human IL-13 [15]: 6 nM | IC50, TF-1 proliferation with variant IL-13 (R130Q) [16]: 7.8 nM | IC50 [18]: 7.9 nM | IC50 [4]: 1 nM
